These results are taken from PMC6957217.

The target in the assay is E. coli bacteria. Nature of the assay: binding to whole E. coli cells in presence of purified E. coli B LPS. To be noted: read off a plot.

For the substance “Phage T4 LTF needle (gp37; amino acids 799–1026), wild type (from UniProt P03744) G938A”, the response is 90 % Binding (LPS 0.32 ng, parent: est. 32); 85 % Binding (LPS 1.6 ng, parent: est. 47); 92 % Binding (LPS 8 ng, parent: est. 62); 92 % Binding (LPS 40 ng, parent: est. 87); 100 % Binding (LPS 200 ng, parent: est. 130); 110 % Binding (LPS 1000 ng, parent: est. 190). The response (LPS 5000 ng, parent: est. 230) was 120 % Binding.

In the case of “Phage T4 LTF needle (gp37; amino acids 799–1026), wild type (from UniProt P03744) N937A”, the response runs as follows: (LPS 0.32 ng, parent: est. 32) 90 % Binding; (LPS 1.6 ng, parent: est. 47) 92 % Binding; (LPS 8 ng, parent: est. 62) 94 % Binding; (LPS 40 ng, parent: est. 87) 98 % Binding; (LPS 200 ng, parent: est. 130) 110 % Binding; (LPS 1000 ng, parent: est. 190) 140 % Binding. Also, under “LPS 5000 ng, parent: est. 230”, the response turned out to be 150 % Binding.
